Molecular target: SARS-CoV-2的野生型RBD蛋白(货号SPD-C82E8，ACRO Biosystems) (SARS-CoV-2, UniProt P0DTC2 319-537)

B1: JS5-10 (antibody, human IgG1, kappa, L234A L235A, V domains shown)
VH: EVQLLESGGGLVQPGGSLRLSCAASGFTFSSYAMSWVRQAPGKGLEWVSAIVGSGGSTYYADSVKGRFIISRDNSKNTLYLQMNSLRAEDTAVYYCAKSLIYGHYDILTGAYYFDYWGQGTLVTVSS
VL: DIQMTQSPSSVSASVGDRVTIPCRASQGIGNWLAWYQQKPGKAPKLLIYAASSLQSGVPSRFSGSGSGTDFTLTISSLQPEDFATYYCQQANSFPPFGQGTRLEIKR
For B1, the Kd was 2.04 nM, the koff was 0.000215 s⁻¹ and the kon was 106000 M⁻¹ s⁻¹.
